Positions count from the first letter of the chain named.
B1: HAb 6b (antibody, V domains shown)
VH: EVQLVQSGAEVKKPGATVKMSCKASGYTFTDYYMKWVKQAPGKGLEWIGDINPNNGDTFYNEKFQGRATLTVDKSTNTAYMELSSLRSEDTAVYYCAKPGRTYWGQGTLVTVS
VL: DIVLTQSPDSLAVSLGERVTMSCKSSQSLLDSGNQKNYLVWYQQKPGQPPKLLIYGASTRESGVPDRFSGSGSGTDFTLTISSVQAEDVAVYYCQNDHSYPLTFGAGTKLELK
B2: Clone 6 (antibody, V domains shown)
VH: EVQLQQSGPELVKPGASVKMSCKASGYTFTDYYMKWVKQSHGKSLEWIGDINPNNGDTFYNQKFKGKATLTVDKSSNTAYMQLNSLTSEDSAVYYCAKPGRTYWGQGTLVTVS
VL: B1 VL with D9S, A12S, L15A, R18K, S69T, A86P, V89L
notes: also called murine anti-PrPc antibody Clone 6; full-length Clone 6 antibody; source: 293F cells, purified with protein A column
B3: HAb 6c (antibody, V domains shown)
VH: B1 VH with M20I, K38Q, I48M, D50L, I51V, A68V, L70I, K98T
VL: B1 VL with V19A, M21I, V84L
B4: 4AA-m (antibody, V domains shown)
VH: EVQLVQSGAEVKKPGDTVKMSCKASGYTFTDYYMKWVKQAPGKAPGKSLEWIGDINPNNGDTFYNQKFQGRATLTVDKSSNTAYMELSSLRSEDTAVYYCVKPGRTYWGQGTLVTVS
VL: B1 VL with S69T
notes: also called recombinant 4AA-m; source: 293F cells, purified with protein A column (said of the antibodies in general)
B5: 4AA (antibody, V domains shown)
VH: B4 VH
VL: B1 VL with S69T
notes: IgG1
B6: HAb 6 (antibody, V domains shown)
VH: B1 VH with G44S, E62Q, T76S
VL: B1 VL with S69T
notes: IgG1; also called humanized antibody HAb 6; wild-type antibody; source: 293F cells, purified with protein A column

Legend:
[1] = biological target: T1, full-length PrPc displayed on 293T cells (293T-PrPc) (Homo sapiens (Human)., UniProt P04156)
PrPc-35aa = PrPc-35aa (Homo sapiens (Human).); assay: BLI; conditions: both partners purified
[2] = biological target: T1, full-length PrPc displayed on 293T …; assay: Western blotting; conditions: one partner purified

Binder	binding result [1]	Kd (PrPc-35aa) [nM]	further results
B1	binds	–	–
B2	–	0.314	–
B3	binds	–	–
B4	–	–	Western blot signal on the 5 μg lysate, fold of that with 3F4 [2]: 3 fold; Western blot signal on the 5 μg lysate, fold of that with 8H4 [2]: 9 fold
B5	–	0.281	–
B6	–	2.92	–
